Test results reported in patent US20190060430A1 (published 2019).

What was measured:
Experiment in all cases: cytokine release
[1] = biological target: NY-ESO-1 peptide on HLA-DRB1*04:01 (human)
[2] = biological target: T1, TPTE peptide on HLA-DRB1*07:01 (human)
T1 peptide: ILADLIFTDSKLYIPLEYR

[3] = biological target: T2, TPTE peptide on HLA-DRB1*13:01 (human)
T2 peptide: IFFDIKLLRNIPRWTHLLR

[4] = biological target: T3, NY-ESO-1 peptide on HLA-DRB5*02:02 (human)
T3 peptide: SGNILTIRLTAADHRQLQL

[5] = biological target: T4, TPTE peptide on HLA-DRB1*14:01 (human)
T4 peptide: SPISESVLARLSKFEVEDA

[6] = biological target: T5, NY-ESO-1 peptide on HLA-DRB1*04:01 (human)
T5 peptide: CFLPVFLAQPPSGQRR

[7] = biological target: T6, TPTE peptide on HLA-DRB1*15:01 (human)
T6 peptide: DVVYIFFDIKLLRNI

[8] = biological target: T7, TPTE peptide on HLA-B*35:01 (human)
T7 peptide: YPSDFAVEI

[9] = biological target: NY-ESO-1 peptide on HLA-DRB1*16:01 (human)
[10] = biological target: NY-ESO-1 peptide on HLA-DRB1*11:01 (human)
[11] = biological target: T8, TPTE peptide on HLA-DRB1*14:01 (human)
T8 peptide: KHFIIYSIPRYVRDLKIQI

[12] = biological target: T9, hCMV pp65 peptide on HLA-DRB1*07:01 (human)
T9 peptide: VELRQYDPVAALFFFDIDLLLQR

[13] = biological target: T10, TPTE peptide on HLA-DRB1*14:01 (human)
T10 peptide: WLHTSFIENNRLYLPKNEL

[14] = biological target: T11, hCMV pp65 peptide on HLA-DRB1*07:01 (human)
T11 peptide: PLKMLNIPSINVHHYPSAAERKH

[15] = biological target: T12, TPTE peptide on HLA-DRB4*01:01 (human)
T12 peptide: NWNLPPRRILFIKHFIIYS

B1: TCRCD4-NY#3 (TCR, V domains shown)
Valpha: QKEVEQDPGPLSVPEGAIVSLNCTYSNSAFQYFMWYRQYSRKGPELLMYTYSSGNKEDGRFTAQVDKSSKYISLFIRDSQPSDSATYLCAMSKGAQKLVFGQGTRLTINP
Vbeta: EAGVAQSPRYKIIEKRQSVAFWCNPISGHATLYWYQQILGQGPKLLIQFQNNGVVDDSQLPKDRFSAERLKGVDSTLKIQPAKLEDSAVYLCASSLGDSNTGELFFGEGSRLTVL
binding result [1]: recognises

B2: TCRCD4-TPT#11 (TCR, V domains shown)
Valpha: SQQGEEDPQALSIQEGENATMNCSYKTSINNLQWYRQNSGRGLVHLILIRSNEREKHSGRLRVTLDTSKKSSSLLITASRAADTASYFCAGYNTNAGKSTFGDGTTLTVKP
Vbeta: NAGVTQTPKFRILKIGQSMTLQCAQDMNHNYMYWYRQDPGMGLKLIYYSVGAGITDKGEVPNGYNVSRSTTEDFPLRLELAAPSQTSVYFCASSFGQVWADTQYFGPGTRLTVL
binding result [2]: recognises

B3: TCRCD4-TPT#87 (TCR, V domains shown)
Valpha: ELKVEQNPLFLSMQEGKNYTIYCNYSTTSDRLYWYRQDPGKSLESLFVLLSNGAVKQEGRLMASLDTKARLSTLHITAAVHDLSATYFCAVDMWNNNARLMFGDGTQLVVKP
Vbeta: KAGVTQTPRYLIKTRGQQVTLSCSPISGHRSVSWYQQTPGQGLQFLFEYFSETQRNKGNFPGRFSGRQFSNSRSEMNVSTLELGDSALYLCASSLAQSGANVLTFGAGSRLTVL
binding result [3]: recognises

B4: TCRCD4-NY#13 (TCR, V domains shown)
Valpha: KQEVTQIPAALSVPEGENLVLNCSFTDSAIYNLQWFRQDPGKGLTSLLLIQSSQREQTSGRLNASLDKSSGRSTLYIAASQPGDSATYLCAVPTDSWGKLQFGAGTQVVVTP
Vbeta: DTGVSQDPRHKITKRGQNVTFRCDPISEHNRLYWYRQTLGQGPEFLTYFQNEAQLEKSRLLSDRFSAERPKGSFSTLEIQRTEQGDSAMYLCASSSKLTGIPEGTDTQYFGPGTRLTVL
binding result [4]: recognises

B5: TCRCD4-TPT#6 (TCR, V domains shown)
Valpha: QKEVEQDPGPLSVPEGAIVSLNCTYSNSAFQYFMWYRQYSRKGPELLMYTYSSGNKEDGRFTAQVDKSSKYISLFIRDSQPSDSATYLCAMSAVSFGNVLHCGSGTQVIVLP
Vbeta: ETGVTQSPTHLIKTRGQQVTLRCSSQSGHNTVSWYQQALGQGPQFIFQYYREEENGRGNFPPRFSGLQFPNYSSELNVNALELDDSALYLCASSFGENTIYFGEGSWLTVV
binding result [5]: recognises

B6: TCRCD4-TPT#55 (TCR, V domains shown)
Valpha: AQTVTQSQPEMSVQEAETVTLSCTYDTSESDYYLFWYKQPPSRQMILVIRQEAYKQQNATENRFSVNFQKAAKSFSLKISDSQLGDAAMYFCAYRSAVYNTDKLIFGTGTRLQVFP
Vbeta: KAGVTQTPRYLIKTRGQQVTLSCSPISGHRSVSWYQQTPGQGLQFLFEYFSETQRNKGNFPGRFSGRQFSNSRSEMNVSTLELGDSALYLCASSFSSYNEQFFGPGTRLTVL
binding result [3]: recognises

B7: TCRCD4-NY#1 (TCR, V domains shown)
Valpha: GIQVEQSPPDLILQEGANSTLRCNFSDSVNNLQWFHQNPWGQLINLFYIPSGTKQNGRLSATTVATERYSLLYISSSQTTDSGVYFCAVNDYKLSFGAGTTVTVRA
Vbeta: DSGVTQTPKHLITATGQRVTLRCSPRSGDLSVYWYQQSLDQGLQFLIQYYNGEERAKGNILERFSAQQFPDLHSELNLSSLELGDSALYFCASSPGVSGTTEAFFGQGTRLTVV
binding result [6]: recognises

B8: TCRCD4-TPT#91 (TCR, V domains shown)
Valpha: EDQVTQSPEALRLQEGESSSLNCSYTVSGLRGLFWYRQDPGKGPEFLFTLYSAGEEKEKERLKATLTKKESFLHITAPKPEDSATYLCAVLGGSNYKLTFGKGTLLTVNP
Vbeta: NAGVTQTPKFQVLKTGQSMTLQCAQDMNHNSMYWYRQDPGMGLRLIYYSASEGTTDKGEVPNGYNVSRLNKREFSLRLESAAPSQTSVYFCAISRDSYEQYFGPGTRLTVT
binding result [7]: recognises

B9: TCRCD8-TPT#3 (TCR, V domains shown)
Valpha: TQLLEQSPQFLSIQEGENLTVYCNSSSVFSSLQWYRQEPGEGPVLLVTVVTGGEVKKLKRLTFQFGDARKDSSLHITAAQPGDTGLYLCAGAQGQKLLFARGTMLKVDL
Vbeta: DTGVSQNPRHKITKRGQNVTFRCDPISEHNRLYWYRQTLGQGPEFLTYFQNEAQLEKSRLLSDRFSAERPKGSFSTLEIQRTEQGDSAMYLCASSHLAGGNTGELFFGEGSRLTVL
binding result [8]: recognises

B10: TCRCD4-TPT#48/2 (TCR, V domains shown)
Valpha: AQSVTQPDIHITVSEGASLELRCNYSYGATPYLFWYVQSPGQGLQLLLKYFSGDTLVQGIKGFEAEFKRSQSSFNLRKPSVHWSDAAEYFCAVGAYDMRFGAGTRLTVKP
Vbeta: DVKVTQSSRYLVKRTGEKVFLECVQDMDHENMFWYRQDPGLGLRLIYFSYDVKMKEKGDIPEGYSVSREKKERFSLILESASTNQTSMYLCASNRLNTEAFFGQGTRLTVV
binding result [7]: recognises

B11: TCRCD4-NY#7 (TCR, V domains shown)
Valpha: AQSVTQLDSQVPVFEEAPVELRCNYSSSVSVYLFWYVQYPNQGLQLLLKYLSGSTLVKGINGFEAEFNKSQTSFHLRKPSVHISDTAEYFCAVSKSGGYQKVTFGTGTKLQVIP
Vbeta: GAVVSQHPSWVICKSGTSVKIECRSLDFQATTMFWYRQFPKQSLMLMATSNEGSKATYEQGVEKDKFLINHASLTLSTLTVTSAHPEDSSFYICSAAPGLAGGQGGSQYFGPGTRLLVL
binding result [9]: recognises
binding result [10]: recognises

B12: TCRCD4-TPT#5 (TCR, V domains shown)
Valpha: AQTVTQSQPEMSVQEAETVTLSCTYDTSESDYYLFWYKQPPSRQMILVIRQEAYKQQNATENRFSVNFQKAAKSFSLKISDSQLGDAAMYFCAYSRTSGTYKYIFGTGTRLKVLA
Vbeta: ETGVTQTPRHLVMGMTNKKSLKCEQHLGHNAMYWYKQSAKKPLELMFVYNFKEQTENNSVPSRFSPECPNSSHLFLHLHTLQPEDSALYLCASSQEISGSSYEQYFGPGTRLTVT
binding result [11]: recognises

B13: TCRCD4-CMV#5 (TCR, V domains shown)
Valpha: GIQVEQSPPDLILQEGANSTLRCNFSDSVNNLQWFHQNPWGQLINLFYIPSGTKQNGRLSATTVATERYSLLYISSSQTTDSGVYFCAAGSNTGNQFYFGTGTSLTVIP
Vbeta: NAGVTQTPKFRVLKTGQSMTLLCAQDMNHEYMYWYRQDPGMGLRLIHYSVGEGTTAKGEVPDGYNVSRLKKQNFLLGLESAAPSQTSVYFCASSSRGYGTDTQYFGPGTRLTVL
binding result [12]: recognises

B14: TCRCD4-CMV#3 (TCR, V domains shown)
Valpha: AQSVTQLDSQVPVFEEAPVELRCNYSSSVSVYLFWYVQYPNQGLQLLLKYLSGSTLVKGINGFEAEFNKSQTSFHLRKPSVHISDTAEYFCAVSSYGSSNTGKLIFGQGTTLQVKP
Vbeta: NAGVTQTPKFQVLKTGQSMTLQCAQDMNHNSMYWYRQDPGMGLRLIYYSASEGTTDKGEVPNGYNVSRLNKREFSLRLESAAPSQTSVYFCASSTAGGRNYGYTFGSGTRLTVV
binding result [12]: recognises

B15: TCRCD4-TPT#13 (TCR, V domains shown)
Valpha: EDQVTQSPEALRLQEGESSSLNCSYTVSGLRGLFWYRQHPGKGPEFLFTLYSAGEEKEKERLKATLTKKESFLHITAPKPEDSATYLCAVQASNSGNTPLVFGKGTRLSVIA
Vbeta: DGGITQSPKYLFRKEGQNVTLSCEQNLNHDAMYWYRQDPGQGLRLIYYSQIVNDFQKGDIAEGYSVSREKKESFPLTVTSAQKNPTAFYLCASSAPHQRGTNEQFFGPGTRLTVL
binding result [13]: recognises

B16: TCRCD4-NY#5 (TCR, V domains shown)
Valpha: AQSVTQLGSHVSVSEGALVLLRCNYSSSVPPYLFWYVQYPNQGLQLLLKYTTGATLVKGINGFEAEFKKSETSFHLTKPSAHMSDAAEYFCAVSRANFGNEKLTFGTGTRLTIIP
Vbeta: DTEVTQTPKHLVMGMTNKKSLKCEQHMGHRAMYWYKQKAKKPPELMFVYSYEKLSINESVPSRFSPECPNSSLLNLHLHALQPEDSALYLCASSQDPRGGPQHFGDGTRLSIL
binding result [10]: recognises

B17: TCRCD4-CMV#1 (TCR, V domains shown)
Valpha: KQEVTQIPAALSVPEGENLVLNCSFTDSAIYNLQWFRQDPGKGLTSLLLIQSSQREQTSGRLNASLDKSSGRSTLYIAASQPGDSATYLCAVKDNDMRFGAGTRLTVKP
Vbeta: DTAVSQTPKYLVTQMGNDKSIKCEQNLGHDTMYWYKQDSKKFLKIMFSYNNKELIINETVPNRFSPKSPDKAHLNLHINSLELGDSAVYFCASSQEKRGAFFGQGTRLTVV
binding result [14]: recognises

B18: TCRCD4-TPT#4 (TCR, V domains shown)
Valpha: AQKITQTQPGMFVQEKEAVTLDCTYDTSDPSYGLFWYKQPSSGEMIFLIYQGSYDQQNATEGRYSLNFQKARKSANLVISASQLGDSAMYFCATASNFGNEKLTFGTGTRLTIIP
Vbeta: SAVISQKPSRDICQRGTSLTIQCQVDSQVTMMFWYRQQPGQSLTLIATANQGSEATYESGFVIDKFPISRPNLTFSTLTVSNMSPEDSSIYLCSVDRDREDGYTFGSGTRLTVV
binding result [15]: recognises

B19: TCRCD4-NY#11 (TCR, V domains shown)
Valpha: AQSVSQHNHHVILSEAASLELGCNYSYGGTVNLFWYVQYPGQHLQLLLKYFSGDPLVKGIKGFEAEFIKSKFSFNLRKPSVQWSDTAEYFCAVNRRTGNQGGKLIFGQGTELSVKP
Vbeta: EAGVAQSPRYKIIEKRQSVAFWCNPISGHATLYWYQQILGQGPKLLIQFQNNGVVDDSQLPKDRFSAERLKGVDSTLKIQPAKLEDSAVYLCASSLGPYIDGAGCTFGSGTRLTVV
binding result [10]: recognises
